The values below come from patent US20140105905A1 (Amgen, published 2014).

In general, Kd refers to a measure of binding affinity in units of concentration. A word on the koff: it is the rate constant with which the complex falls apart. In general, kon refers to the rate constant with which the complex forms.

Experiment [1] addresses T1, recombinant human Interleukin-8 (human, UniProt P10145 28-99).
T1 construct: also called rhIL-8; IL-8
T1 sequence (looked up): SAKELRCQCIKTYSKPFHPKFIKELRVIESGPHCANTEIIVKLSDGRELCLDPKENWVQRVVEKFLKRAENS
The experiment is described as follows: KinExA equilibrium in solution, 36 h, mAb 23 pM. On the procedure: (§1) The experiments with KinExA were performed using an automated flow immunoassay system, KinExA 3000 [Ohmura et al., Anal. Chem. 73:3392, 2001] in which rhIL-8-coupled beads served as the solid phase. […] Antigen/antibody complexes were incubated at RT for 36 h to 144 h to allow equilibrium to be reached. The mixture was drawn through the rhIL-8-coupled beads to accumulate unbound antibody. The captured anti-hIL-8 mAb is directly proportional to the remaining free binding sites and was detected using solutions containing Cy5-conjugated anti-human secondary antibody in sample buffer. The concentrations, volumes, and flow rates of the secondary antibody solutions were varied to optimize the signal to noise ratio in each experiment. The bound signals were converted into relative values as a proportion of control in the absence of rhIL-8. The equilibrium dissociation constant (Kd) was obtained from nonlinear regression analysis of the data using a one-site homogeneous binding model contained within the software [Blake et Al., Anal. Biochem. 272:123, 1999; Jones et al., Bioconjug Chem 13:408, 2002]. […]
(§2) A proportionate amount of free mAb present in the equilibrium mixture was measured by flowing 0.25 ml to 3 ml of the sample on rhIL-8 coupled to CNBr-activated Sepharose beads and detected using 1.0 ml of 1.7 μg/ml of Cy5-labeled goat anti-human IgG Fcγ fragment-specific secondary antibody. […]
In general terms: Kinetic exclusion samples the free partner from a solution-phase mixture.

Experiment [2] concerns the target T1, recombinant human Interleukin-8. The experiment is described as follows: calculated from KinExA kon and Kd. An excerpt:
(§3) For measuring the association rate constant using KinExA, the same rhIL-8-coupled beads were used as the probe and the “Kinetics, Direct” method was used. The “Kinetics, Direct” experiments by KinExA are identical to KinExA equilibrium assays with respect to bead column height, antibody capture, antibody concentration and antibody detection. Briefly, the mAb was mixed with an amount of antigen that bound approximately 80% of the mAb in the equilibrium experiments and the free antibody present in the sample was probed repeatedly, pre-equilibrium. […] The volumes and flow rates of the antigen-mAb mixtures and the Cy5-labeled secondary antibody were varied depending upon the mAb tested. Data was analyzed utilizing the KinExA analysis software that comes with the KinExA 3000 instrument. This software graphically represents the decrease in binding signals over time, and fits the collected data points to an exact solution of the kinetic differential equations for binding. From this curve, an optimal solution for the kₒₙ is determined. The koff is indirectly calculated from solutions for the kₒₙ and Kd.
(§4) The on-rate measurement by KinExA is not limited by the mAb concentration used in the experiment. […] The concentration of mAb used for on-rate experiments was the same as those used in equilibrium binding experiments. An amount of IL-8 that bound 80% of the mAb in equilibrium binding experiments was mixed with the mAb. The amount of free mAb left in the mixture was measured in KinExA by flowing 1 ml of the mixture repeatedly through rhIL-8 coupled to NHS-activated Sepharose beads and detected using 1 ml of 2.0 μg/ml of Cy5-labeled goat anti-human IgG Fcγ fragment-specific secondary antibody. The kₒₙ was measured using the KinExA software by the “Kinetic, Direct” method and the 95% confidence intervals are given as kₒₙ range. The koff for the mAb was calculated from the measured kₒₙ and Kd of the respective mAb.

Experiment [3] has the same target. Nature of the experiment: KinExA equilibrium, optimized, n-curve analysis, mAb 4.6 and 27 pM. The source says:
(§5) The mixture was drawn through the rhIL-8-coupled beads to accumulate unbound antibody. The captured anti-hIL-8 mAb is directly proportional to the remaining free binding sites and was detected using solutions containing Cy5-conjugated anti-human secondary antibody in sample buffer. The concentrations, volumes, and flow rates of the secondary antibody solutions were varied to optimize the signal to noise ratio in each experiment. The bound signals were converted into relative values as a proportion of control in the absence of rhIL-8. The equilibrium dissociation constant (Kd) was obtained from nonlinear regression analysis of the data using a one-site homogeneous binding model contained within the software [Blake et Al., Anal. Biochem. 272:123, 1999; Jones et al., Bioconjug Chem 13:408, 2002]. […]
(§6) A proportionate amount of free mAb present in the equilibrium mixture was measured in KinExA under optimized conditions. For example, for the mixtures containing the low concentration of mAb, 18-36 ml of the sample was flown through rhIL-8 coupled to NHS-activated Sepharose beads and detected using 1-2 ml of 2.0 μg/ml of Cy5-labeled goat anti-human IgG Fcγ fragment-specific secondary antibody. The Kd was calculated using KinExA software by using the “n-curve analysis” selection.

Experiment [4] has the same target. The experiment is described as follows: KinExA "Kinetics, Direct" method.
Source text: as §3, §4

The target is the same in experiment [5]. The experiment is described as follows: not named in this sentence (summary of the filing's own affinity results).
The target of experiment [6] is T2, IL-8 peptide ELRCQCIKTYSK (human).
T2 peptide: ELRCQCIKTYSK
Nature of the experiment: overlapping IL-8 peptides on a membrane; column "Recognized epitope". As for the experimental part:
Briefly, overlapping IL-8 peptides, which were each two amino acids c-terminal to the previous peptide (as shown in FIG. 8) were prepared and attached to a membrane. Antibodies were then added and allowed to bind to the peptides.

The target in experiment [7] is T1, recombinant human Interleukin-8. The experiment is described as follows: KinExA equilibrium in solution, 36 h, mAb 25 pM. On the procedure: The experiments with KinExA were performed using an automated flow immunoassay system, KinExA 3000 [Ohmura et al., Anal. Chem. 73:3392, 2001] in which rhIL-8-coupled beads served as the solid phase. […] Antigen/antibody complexes were incubated at RT for 36 h to 144 h to allow equilibrium to be reached. The mixture was drawn through the rhIL-8-coupled beads to accumulate unbound antibody. The captured anti-hIL-8 mAb is directly proportional to the remaining free binding sites and was detected using solutions containing Cy5-conjugated anti-human secondary antibody in sample buffer. The concentrations, volumes, and flow rates of the secondary antibody solutions were varied to optimize the signal to noise ratio in each experiment. The bound signals were converted into relative values as a proportion of control in the absence of rhIL-8. The equilibrium dissociation constant (Kd) was obtained from nonlinear regression analysis of the data using a one-site homogeneous binding model contained within the software [Blake et Al., Anal. Biochem. 272:123, 1999; Jones et al., Bioconjug Chem 13:408, 2002]. The software calculates the Kd and determines the 95% confidence interval by fitting the data points to a theoretical Kd curve. The 95% confidence interval is given as Kd low and Kd high.
A proportionate amount of free mAb present in the equilibrium mixture was measured by flowing 0.25 ml to 3 ml of the sample on rhIL-8 coupled to CNBr-activated Sepharose beads and detected using 1.0 ml of 1.7 μg/ml of Cy5-labeled goat anti-human IgG Fcγ fragment-specific secondary antibody. Each sample was run in triplicate. The Kd was calculated by the KinExA software and the 95% confidence interval is given as the Kd range.

Experiment [8] has the same target. The experiment is described as follows: KinExA equilibrium, optimized, n-curve analysis, mAb 1.3 and 13 pM.
Source text: as §5, §6

Experiment [9] has the same target. The experiment is described as follows: KinExA equilibrium in solution, 36 h, mAb 10 pM. On the procedure:
as §1, §2

The target is the same in experiment [10]. Nature of the experiment: KinExA equilibrium, optimized, n-curve analysis, mAb 18 and 120 pM.
Source text: as §5, §6

Experiment [11] has the same target. The experiment is described as follows: KinExA equilibrium in solution, 36 h, mAb 90 pM. On the procedure: as §1, §2
The target is the same in experiment [12]. Nature of the experiment: KinExA equilibrium in solution, 36 h, mAb 100 pM. On the procedure:
as §1, §2

For experiment [13] the target is unchanged. Nature of the experiment: KinExA equilibrium in solution, 36 h, mAb 200 pM. On the procedure: as §1, §2

B1: anti-hIL-8 mAb 809 (antibody, human IgG2, V domains shown)
VH: QVQLVESGGGVVQPGRSLRLSCAASGFTFSSYGMLWVRQAPGKGLEWVADISYDGSNKYYADSVKGRFTISRDNSKNTLFLQMNSLRAEDTAVYYCARDRIAVADYWGQGTLVTVSS
VL: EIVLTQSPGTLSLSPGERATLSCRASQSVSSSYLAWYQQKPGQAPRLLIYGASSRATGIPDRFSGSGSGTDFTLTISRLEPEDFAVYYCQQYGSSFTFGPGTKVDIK
notes: also called clone 6G11
Regarding B1, the Kd is 0.0022 nM in [1], 0.00329 nM in experiment [3] and approximately 0.00223 nM in [5]. In addition, in experiment [2], the koff was 1.6e-05 s⁻¹. Further, in experiment [4], the kon is 4.8e+06 M⁻¹ s⁻¹. The binding result in [6] is listed as “binds”.

B2: anti-hIL-8 mAb 142 (antibody, human IgG2, V domains shown)
VH: QVQLVQSGAEVKKPGASVKVSCKASGYTFTGYYMHWVRQAPGQGLEWMGWINSNSGGTNYSQKFQGRVTMTRDTSISTVYMELSRLRSDDTAVYYCASGYSYGYRYYYYGMDVWGQGTTVTVSS
VL: DIQMTQSPSSLSASVGDRVTITCRASQGISNSLAWYQQKPGKVPNLLIYAASTLQSGVPSRFSGSGSGTDFTLTISSLQPEDVATYYCQKYNSVPLTFGGGTKVEIK
notes: also called antibody number 142
With B2, the Kd in [7] was found to be 0.4 nM.

B3: anti-hIL-8 mAb 203 (antibody, human IgG2, V domains shown)
VH: QVQLVQSGAEVKKPGASVKVSCKASGYTFTGYYIHWVRQAPGQGLEWMGWINSNSGGTNFAQKFQGRVTMTRDTSISTAYMELSRLRPDDTAVYYCASGYRYGYRYYYYGMDVWGQGTTVTVSS
VL: DIQMTQSPSSLSASVGDRVTITCRASQGISNSLAWYQQKPGKVPKLLIYAASTLQSGVPSRFSGSGSGTDFTLTISSLQPEDVATYYCQKYNSVPLTFGGGTKVEIN
notes: also called antibody number 203
Consider B3, for which the Kd in experiment [7] came out at 0.19 nM.

B4: anti-hIL-8 mAb 861 (antibody, human IgG2, V domains shown)
VH: QVQLVESGGGVVQPGRSLRLSCAASGFTFSNYGMHWVRQAPGKGLEWVAVIYFEGSNKYNADSVKGRFTISRDNSKNTLYLQMNSLRAEDTAVYYCARSPYGDYLDYWGQGTLVTVSS
VL: EIVLTQSPGTLSLSPGERATLSCRASQTIDYNYLHWYQQKPGQAPRLLIYGTFIRATVIPDRFSGSGSGTDFTLTISRLEPEDIAVYYCQQFGRSPLTFGGGTKVEIK
notes: also called antibody number 861
Turning to B4, the Kd is 0.003 nM in experiment [8], approximately 0.00289 nM in experiment [5] and 0.0029 nM in experiment [7]. The off-rate (koff) in [2] was 1.3e-05 s⁻¹. Also, the kon in [4] came to 4.4e+06 M⁻¹ s⁻¹.

B5: anti-hIL-8 mAb 33 (antibody, human IgG2, V domains shown)
VH: QVQLQQWGAGLLKPSETLSLTCAVYGGFFSGYYWSWIRQPPGKGLEWIGEINHSGSTNYNPSLKSRVTISVDTSKNQFSLKLISVTAADTAVYYCARGSAAEAFDIWGQGTMVTVSS
VL: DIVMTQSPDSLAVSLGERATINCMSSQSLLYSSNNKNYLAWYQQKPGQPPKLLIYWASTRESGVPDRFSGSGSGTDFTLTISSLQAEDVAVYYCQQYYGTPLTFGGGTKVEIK
notes: also called antibody number 33
As for B5, the equilibrium dissociation constant (Kd) in experiment [9] was 0.28 nM.

B6: anti-hIL-8 mAb 837 (antibody, human IgG2, V domains shown)
VH: QVQLQQWGAGLLKPSETLSLTCAVFGGTFSGYYWTWIRQPPGKGLEWIGEVIHHGSTNYSPSLKSRVTISADTSKSQFSLRLSSVTAADTAVYYCARGGAAAALDSWGQGTLVIVSS
VL: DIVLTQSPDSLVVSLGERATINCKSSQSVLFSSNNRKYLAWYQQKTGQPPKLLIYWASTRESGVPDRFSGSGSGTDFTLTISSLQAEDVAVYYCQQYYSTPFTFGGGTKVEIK
notes: also called clone 36C6; ABXha-IL-8
As for B6, the Kd in [10] is 0.0157 nM; in [11], 0.011 nM; in experiment [5] it was approximately 0.0109 nM. Moreover, the koff in experiment [2] was 1.9e-05 s⁻¹. The kon in experiment [4] turned out to be 1.1e+06 M⁻¹ s⁻¹. In experiment [6], the binding result is “binds”.

B7: anti-hIL-8 mAb 1093 (antibody, human IgG2, V domains shown)
VH: QVQLQQWGAGLLKPSETLSLTCAVFGGSFSGYYWTWIRQPPGKGLEWIGEIIHHGSTNYSPSLKSRVTISADTSKSQFSLRLSSVTAADTAVYYCARGGAAAGLDSWGQGTLVTVSS
VL: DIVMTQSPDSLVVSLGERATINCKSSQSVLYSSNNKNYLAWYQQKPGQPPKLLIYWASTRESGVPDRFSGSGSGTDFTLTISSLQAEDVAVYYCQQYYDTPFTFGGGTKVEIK
notes: also called antibody number 1093
Consider B7, for which the Kd in experiment [12] came to 0.2 nM.

B8: anti-hIL-8 mAb 1080 (antibody, human IgG2, V domains shown)
VH: QVQLQQWGAGLLKPSESLSLTCAVYGGSFFSGYYWSWIRQPPGKGLEWIGEITHSGNTNYNPSLKSRVSISVDTSTNQFSLKLSSVTAADTAVYYCGRGGAEVGFDYWGQGTLVTVSS
VL: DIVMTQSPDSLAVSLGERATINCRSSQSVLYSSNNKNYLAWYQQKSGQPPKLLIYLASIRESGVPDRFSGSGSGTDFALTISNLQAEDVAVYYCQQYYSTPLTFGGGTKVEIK
With B8, in experiment [7], the Kd worked out at 0.63 nM.

B9: anti-hIL-8 mAb 469 (antibody, human IgG2, V domains shown)
VH: EVQLLESGGGLVQPGGSLRLSCAASGFTFSSYVMSWVRQAPGKGLEWVSAINNSGGSTDYADSVKGRFTISRDNSKNTLYLQMNSLRAEDTAVYYCAKEGRFLEWSLYGLDVWGQGTTVTVSS
VL: DIQMTQSPSSLSASVGDRVTIACRASQGIRNDLGWYQQKPGKAPKRLIYAASSLQSGVPSRFGGSGSGTEFTLTISSLQPEDFATYYCLQHNSYPRTFGQGTKVEIK
notes: also called antibody number 469
Consider B9, for which the Kd in experiment [13] was found to be 0.87 nM.
